According to article PMC3431237:

Assays:
[1] = biological target: T1, PbrR (Cupriavidus metallidurans CH34 (plasmid pMOL30)) (UniProt Q58AJ5); assay: EMSA; settings: not given in material (gel retardation and DNase I protection as in cited refs 36 and 37)
T1 sequence: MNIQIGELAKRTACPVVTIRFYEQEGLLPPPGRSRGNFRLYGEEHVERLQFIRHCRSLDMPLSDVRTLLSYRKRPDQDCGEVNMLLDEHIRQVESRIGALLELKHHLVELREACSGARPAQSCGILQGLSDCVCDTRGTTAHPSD

[2] = biological target: T1, PbrR (Cupriavidus metallidurans CH34 (plasmid pMOL30)); assay: DNase I footprinting; settings: not given in material (gel retardation and DNase I protection as in cited refs 36 and 37)

Q: Which binding [1] does the source give for “GCGAATGGTCACCACCGGGCATGCGGTGCGCTTGGCAAGCTCGCCGATCTGGATATTCATGGCGTCGGATGGGAGATGTCTTGACTCTATAGTAACTAGAGGGTGTTAAATCGGCAACGCGAGATGAATACACACAAGGGGTTGCCATGAGCGAATGTGGCTCGAAGGGATGTGGCTGCGCTTCCGTTGCGACGCGCAACCCAGAACCGAGCACGGTTGGCGCGGGGCTGAAGCAGGCGCGCTACCGAATCGAAAACATGGACTGTCCGACCGAAGAGGCGCTGATTCGCGACAAGC (double strand) [PpbrA 296 bp PCR product]” here?
A: binds

Q: What about the binding [2] of the same sequence?
A: binds
